In PMC7498355, “A quantitative binding model for the Apl protein, the dual purpose recombination-directionality factor and lysis-lysogeny regulator of bacteriophage 186”:

Experiments:
Conditions in all cases: protein: recombinant; label: 32P end label on one strand; blunt
[1] = target: T1, Apl (bacteriophage 186, UniProt P21681 1-87); test: EMSA; multiple shifted species; EMSA: 50 mM Tris-HCl pH 7.5, 0.1 mM EDTA, 10% glycerol, 150 mM NaCl, on ice >=30 min, gel at 4 C; bending in TEG 50; footprint: same Tris/EDTA/glycerol with 75
T1 sequence: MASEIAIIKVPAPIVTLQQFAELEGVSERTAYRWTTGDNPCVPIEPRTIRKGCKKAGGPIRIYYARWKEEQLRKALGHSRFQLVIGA

[2] = target: T1, Apl; test: EMSA; pattern similar to central five pR-pL operators; EMSA: 50 mM Tris-HCl pH 7.5, 0.1 mM EDTA, 10% glycerol, 150 mM NaCl, on ice >=30 min, gel at 4 C; bending in TEG 50; footprint: same Tris/EDTA/glycerol with 75
[3] = target: T1, Apl; test: EMSA; up to 6400 nM Apl; EMSA: 50 mM Tris-HCl pH 7.5, 0.1 mM EDTA, 10% glycerol, 150 mM NaCl, on ice >=30 min, gel at 4 C; bending in TEG 50; footprint: same Tris/EDTA/glycerol with 75
[4] = target: T1, Apl; test: EMSA; apparent Kd (50% DNA unbound); EMSA: 50 mM Tris-HCl pH 7.5, 0.1 mM EDTA, 10% glycerol, 150 mM NaCl, on ice >=30 min, gel at 4 C; bending in TEG 50; footprint: same Tris/EDTA/glycerol with 75
[5] = target: T1, Apl; test: EMSA; two retarded bands; EMSA: 50 mM Tris-HCl pH 7.5, 0.1 mM EDTA, 10% glycerol, 150 mM NaCl, on ice >=30 min, gel at 4 C; bending in TEG 50; footprint: same Tris/EDTA/glycerol with 75

B1: Apl 6 (dsDNA)
DNA 1: TATTTTGGCTAAACCCACGCAATTGATGGCAAGTGTTGGCAAACAGAGTCAAATCAATTGCAAACTT
DNA 2: AAGTTTGCAATTGATTTGACTCTGTTTGCCAACACTTGCCATCAATTGCGTGGGTTTAGCCAAAATA
- binding result [1]: binds

B2: attP 5 (dsDNA)
DNA 1: ATCATTGACATAGATTGCCATTGTTTGCCAATAATTACCTATTATTCGCCATTTC
DNA 2: GAAATGGCGAATAATAGGTAATTATTGGCAAACAATGGCAATCTATGTCAATGAT
- binding result [2]: binds

B3: Apl 101 (dsDNA)
DNA 1: TGATGGCAAGTGTCTTAGGACAGAGTCAAATCA
DNA 2: TGATTTGACTCTGTCCTAAGACACTTGCCATCA
- binding result [3]: no binding

B4: Apl 7 (dsDNA)
DNA 1: TATTTTGGCTAAACCCACGCAATTGATGGCAAGTGTTGGCAAACAGAGTCAAATCAATTGCAAACTTTGGCTAATAGG
DNA 2: CCTATTAGCCAAAGTTTGCAATTGATTTGACTCTGTTTGCCAACACTTGCCATCAATTGCGTGGGTTTAGCCAAAATA
- Kd [4]: ~275 nM

B5: Apl 3 (111) (dsDNA)
DNA 1: TTGATGGCAAGTGTTGGCAAACAGAGTCAAATCA
DNA 2: TGATTTGACTCTGTTTGCCAACACTTGCCATCAA
- Kd [4]: ~800 nM

B6: Apl 4 (dsDNA)
DNA 1: TTGATGGCAAGTGTTGGCAAACAGAGTCAAATCAATTGCAAACTT
DNA 2: AAGTTTGCAATTGATTTGACTCTGTTTGCCAACACTTGCCATCAA
- binding result [5]: binds

B7: Apl 5 (dsDNA)
DNA 1: AACCCACGCAATTGATGGCAAGTGTTGGCAAACAGAGTCAAATCAATTGCAAACTT
DNA 2: AAGTTTGCAATTGATTTGACTCTGTTTGCCAACACTTGCCATCAATTGCGTGGGTT
- binding result [5]: binds

B8: Apl 2 (two pR-pL operators) (dsDNA)
DNA 1: TTGATGGCAAGTGTTGGCAAACAG
DNA 2: CTGTTTGCCAACACTTGCCATCAA
- binding result [3]: no binding

B9: Apl 1101 (dsDNA)
DNA 1: AACCCACGCAATTGATGGCAAGTGTCTTAGGACAGAGTCAAATCA
DNA 2: TGATTTGACTCTGTCCTAAGACACTTGCCATCAATTGCGTGGGTT
- binding result [3]: no binding

B10: Apl 10101 (dsDNA)
DNA 1: AACCCACGCAATTGACTTAGGGTGTTGGCAAACAGCTTAGGATCAATTGCAAACTT
DNA 2: AAGTTTGCAATTGATCCTAAGCTGTTTGCCAACACCCTAAGTCAATTGCGTGGGTT
- binding result [3]: no binding
